Experimental findings from patent US20210341478A1 (ANTAIMMU BIOMED, published 2021) are described below.

The experiment deals with T1, nucleocapsid protein of SARS-CoV-2 expressed in HEK-293 cells (SARS-CoV-2, UniProt P0DTC9 1-419).
T1 construct: also called 293-NP; 293-NP cell lysates
Kind of experiment: ELISA on HEK-293 lysate 293-NP (FIG. 3).

B1: NP-4 IgG (antibody, V domains shown)
VH: EVQLVESGGGLVQPGGSLRLSCAASGFTITNWWIHWVRQAPGKGLEWVAAISPFNGKTHYADSVKGRFTISADTSKNTAYLQMNSLRAEDTAVYYCARLLSIYDYWGQGTLVTVSS
VL: DIQMTQSPSSLSASVGDRVSITCRASQDVWYYVAWYQQKPGKAPKLLISRTNWLDSGVPSRFSGSGSGTDFTLTISSLQPEDFATYYCQQYSDYPLTFGQGTKVEIKR
B1: the binding result is “binds”.

B2: NP-3 IgG (antibody, V domains shown)
VH: EVQLVESGGGLVQPGGSLRLSCAASGFTITDYGIHWVRQAPGKGLEWVAYIGPSDGDTHYADSVKGRFTISADTSKNTAYLQMNSLRAEDTAVYYCARTGGYNSWYMDYWGQGTLVTVSS
VL: DIQMTQSPSSLSASVGDRVTITCRASQDVNNWVAWYQQKPGKAPKLLIYFTSYLYSGVPSRFSGSGSGTDFTLTISSLQPEDFATYYCQQHSTYPFTFGQGTKVEIKR
Turning to B2, the binding result was “binds”.
